According to article PMC3239194:

Assays:
[1] = biological target: I-Bth0305I isolated catalytic domain containing a D196A mutation (Bacillus thuringiensis 0305ϕ8–36 bacteriophage); assay: SEC
[2] = biological target: I-Bth0305I full-length enzyme containing a catalytically inactivating D222N mutation (Bacillus thuringiensis 0305ϕ8–36 bacteriophage); assay: SEC

Row | Substance | stoichiometry N [1] | stoichiometry N [2]
1 | I-Bth0305I isolated catalytic domain containing a D196A mutation (domain or fragment) | 2 | 
2 | I-Bth0305I full-length enzyme containing a catalytically inactivating D222N mutation |  | 2
